PMC5992102

B1: Cy5-labeled 30-mer, one CpG site (dsDNA)
DNA 1: GAAGCTGGGACTTCCGGGAGGAGAGTGCAA
DNA 2: TTGCACTCTCCTCCCGGAAGTCCCAGCTTC

What was measured:
[1] = molecular target: Dnmt3b-C (C-terminal catalytic domain of mouse Dnmt3b) (mouse)
Dnmt3b-C = Dnmt3b-C (mouse, UniProt O88509 558-859); experiment: nitrocellulose filter binding

Row | Molecule | DNA methylation activity of Dnmt3b-C in the presence of Dnmt3L (fold activation) [1] | binding result (Dnmt3b-C)
1 | Dnmt3L (from UniProt Q9CWR8 1-421) (natural protein) | 6 fold | –
2 | B1 | – | binds
